B1: TrwB/VirD4 coupling protein of plasmid R388, N-terminally His-tagged (natural protein, conjugative plasmid R388, UniProt Q04230 1-507, looked up)
chain: MHPDDQRKVSAGIVIVLPLIFWITAVQKTEVLGSPKLLALWELMKLTPQKPILLLSALGGLAVGVLFVWLLNSVGQGEFGGAPFKRFLRGTRIVSGGKLKRMTREKAKQVTVAGVPMPRDAEPRHLLVNGATGTGKSVLLRELAYTGLLRGDRMVIVDPNGDMLSKFGRDKDIILNPYDQRTKGWSFFNEIRNDYDWQRYALSVVPRGKTDEAEEWASYGRLLLRETAKKLALIGTPSMRELFHWTTIATFDDLRGFLEGTLAESLFAGSNEASKALTSARFVLSDKLPEHVTMPDGDFSIRSWLEDPNGGNLFITWREDMGPALRPLISAWVDVVCTSILSLPEEPKRRLWLFIDELASLEKLASLADALTKGRKAGLRVVAGLQSTSQLDDVYGVKEAQTLRASFRSLVVLGGSRTDPKTNEDMSLSLGEHEVERDRYSKNTGKHHSTGRALERVRERVVMPAEIANLPDLTAYVGFAGNRPIAKVPLEIKQFANRQPAFVEGTI
notes: TrwB (VirD4 homologue), coupling protein encoded by the conjugative plasmid R388; whole gene cloned after trwD/virB11; theoretical molecular weight with 10 additional histidines 57 kDa; Inner membrane protein; also called His trwB_(/virD4); source: detergent-solubilised membranes; co-purified (Strep column, HisTrap); not shown: His10, N-terminal, kept

How the values were obtained:
[1] = target: T4SS_(3-10) complex of plasmid R388 (TrwM/VirB3 to TrwE/VirB10) (conjugative plasmid R388); assay: cysteine labelling with Alexa Fluor 633 C5 maleimide and fluorescence of SDS-PAGE bands; co-purified T4SS3-10+D4 complex denatured in 1% SDS, reduced with TCEP, labelled; band of TrwE (14 copies) as reference; three independent preparations
[2] = target: the molecule itself; assay: negative stain electron microscopy structure; co-purified T4SS3-10+D4 complex from the ΔtrwD/virB11 construct, cross-linked with 0.1% glutaraldehyde on a 10-30% sucrose gradient (GraFix); 2% uranyl acetate; reconstruction of the inner membrane complex, C2 symmetry, 28 Å

| Molecule | stoichiometry N (TrwB subunits per complex) [1] | stoichiometry N [2] |
| --- | --- | --- |
| TrwB/VirD4 coupling protein of plasmid R388, N-terminally His-tagged (from UniProt Q04230 1-507) (natural protein) | 4.5 | – |
| B1 | – | 2 TrwB molecules in each region of density |

— publication PMC5916273, “Structure of a VirD4 coupling protein bound to a VirB type IV secretion machinery” (The EMBO Journal, 2017)
